Assay results published in the supplement of paper PMC6757056.
± gives the standard deviation of the averaged measurements.

B1: library; a variant is named by its letters at N, in order (parent)
chain: GCUGUCACCGGUGCUUGGUACGUUAUAUUCAGCCGGUCUGAUGAGUCUNNNNNNAGACGAAACAGC

Key:
(6R,S)-folinic acid [1] = variants of: B1; test: normalized RNA/DNA level without ligand (relative to sTRSVctl = 100) (log10 (% of sTRSVctl)); HEK293T overexpressing SLC46A1; higher = less ribozyme self-cleavage, higher mRNA level; conditions: without (6R,S)-folinic acid; ligand present: no
Procedure, shortened: (§1)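 HEK293T cells received ligand, where used, 1 h before being transfected with 4 µg per 6-well well of library plasmids encoding reporter-linked ribozyme switches. After 72 h, RNA was extracted with EDTA and sequenced. RNA level was derived from RNA reads per DNA read, normalized to a spiked-in non-cleaving sequence or the top sequences, then scaled and log-transformed. Values were ×100 then log10, the top set was 25 sequences, and the minimum was 100 DNA reads.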

(6R,S)-folinic acid [2] = variants of: B1; test: normalized RNA/DNA level with ligand (relative to sTRSVctl = 100) (log10 (% of sTRSVctl)); HEK293T overexpressing SLC46A1; ligand concentration (+) RNA-Seq: 6 mM; higher = less ribozyme self-cleavage, higher mRNA level; conditions: with (6R,S)-folinic acid; ligand present: yes
Procedure, shortened: as §1

| Variant | normalized RNA/DNA level without ligand (log10) ((6R,S)-folinic acid [1]) | normalized RNA/DNA level with ligand (log10) ((6R,S)-folinic acid [2]) |
| --- | --- | --- |
| GGACUU | 2.007 ± 0.0068 | 1.976 ± 0.016 |
| GGACUG | 1.9977 ± 0.00047 | 2 ± 0.059 |
| AGAGAC | 1.981 ± 0.0066 | 2.009 ± 0.016 |
| AGAGAA | 1.953 ± 0.0039 | 1.99 ± 0.025 |
| UGACGU | 1.97 ± 0.03 | 2.02 ± 0.023 |
| CCUUUG | 2.039 ± 0.017 | 2.01 ± 0.067 |
| CCUUUU | 2.031 ± 0.0026 | 2 ± 0.027 |
| CCUUUC | 2.062 ± 0.0044 | 2.01 ± 0.053 |
| CGACCU | 2.061 ± 0.0049 | 2.016 ± 0.013 |
| CGACCC | 2.05 ± 0.028 | 2.02 ± 0.051 |
| CGACCA | 2.079 ± 0.0068 | 2.03 ± 0.034 |
| CGACCG | 1.991 ± 0.007 | 1.99 ± 0.018 |
| CCUUGA | 2.017 ± 0.0066 | 2.03 ± 0.027 |
| CCUUGG | 2.047 ± 0.016 | 2.01 ± 0.022 |
| CCUUGC | 2.004 ± 0.0087 | 2.05 ± 0.039 |
| CCUUGU | 2.01 ± 0.04 | 2.005 ± 0.013 |
| GCUUGC | 2.052 ± 0.01 | 2.01 ± 0.022 |
| GCUUGA | 1.999 ± 0.0031 | 2.024 ± 0.018 |
| GCUUGU | 2.004 ± 0.017 | 2.04 ± 0.058 |
| GCUUGG | 1.932 ± 0.015 | 2.02 ± 0.028 |
| GGACAC | 2.013 ± 0.013 | 2.03 ± 0.039 |
| GGACAG | 1.954 ± 0.0092 | 1.99 ± 0.052 |
| GGACAU | 2.018 ± 0.011 | 2.011 ± 0.016 |
| GCUUUC | 2.0144 ± 0.0002 | 2.01 ± 0.029 |

| Variant | normalized RNA/DNA level without ligand (log10) ((6R,S)-folinic acid [1]) | normalized RNA/DNA level with ligand (log10) ((6R,S)-folinic acid [2]) |
| --- | --- | --- |
| GCUUUU | 2.01 ± 0.047 | 2.02 ± 0.035 |
| GCUUUG | 1.995 ± 0.015 | 2.02 ± 0.053 |
| UCUGAG | 1.745 ± 0.011 | 1.98 ± 0.03 |
| UCUGAA | 1.911 ± 0.0014 | 1.98 ± 0.05 |
| UCUGAU | 1.973 ± 0.008 | 2 ± 0.046 |
| UCUGAC | 2.011 ± 0.0043 | 2.01 ± 0.052 |
| CCUGAC | 2 ± 0.0059 | 1.993 ± 0.0097 |
| CCUGAG | 1.932 ± 0.019 | 1.97 ± 0.025 |
| CCUGAA | 2.0009 ± 0.0006 | 2 ± 0.044 |
| CCUCGC | 2.08 ± 0.03 | 2.033 ± 0.017 |
| CCUCGU | 2.01 ± 0.037 | 2.01 ± 0.07 |
| CCUCGG | 2.078 ± 0.0042 | 1.99 ± 0.012 |
| CCUCGA | 1.998 ± 0.011 | 2.02 ± 0.029 |
| CGAAAU | 1.942 ± 0.0046 | 1.967 ± 0.013 |
| CGAAAC | 1.985 ± 0.0043 | 1.99 ± 0.04 |
| UCUUAC | 2.003 ± 0.0077 | 1.998 ± 0.0031 |
| UCUUAU | 2 ± 0.028 | 2 ± 0.013 |
| UCUUAA | 1.962 ± 0.011 | 2.002 ± 0.0044 |
| UGACCC | 2.041 ± 0.011 | 2.02 ± 0.026 |
| UGACCU | 2.058 ± 0.011 | 2.06 ± 0.034 |
| UGACCG | 1.983 ± 0.0022 | 2.01 ± 0.023 |
| UGACUC | 2.075 ± 0.011 | 2.042 ± 0.0068 |
| UGACUU | 2.006 ± 0.014 | 2.017 ± 0.015 |
| UGACUA | 1.963 ± 0.0017 | 2.0143 ± 0.0019 |

| Variant | normalized RNA/DNA level without ligand (log10) ((6R,S)-folinic acid [1]) | normalized RNA/DNA level with ligand (log10) ((6R,S)-folinic acid [2]) |
| --- | --- | --- |
| AGAACU | 2.036 ± 0.0042 | 2.075 ± 0.0036 |
| AGAACC | 2.02 ± 0.0077 | 2.01 ± 0.049 |
| AGAACG | 1.954 ± 0.0051 | 2.018 ± 0.016 |
| AGAACA | 2.007 ± 0.0027 | 2.02 ± 0.045 |
| ACUGUA | 1.9633 ± 7.1e-05 | 2.026 ± 0.014 |
| ACUGUU | 2 ± 0.02 | 2.01 ± 0.037 |
| ACUGUC | 2.08 ± 0.024 | 2.04 ± 0.059 |
| GCUUAU | 1.942 ± 0.015 | 2.003 ± 0.006 |
| GCUUAG | 1.9687 ± 0.00031 | 2.015 ± 0.013 |
| CCUUAC | 2.02 ± 0.027 | 2.056 ± 0.014 |
| CCUUAA | 2.01 ± 0.0061 | 2.003 ± 0.013 |
| CCUUAG | 1.934 ± 0.015 | 1.96 ± 0.046 |
| CGACAU | 2.006 ± 0.006 | 2.02 ± 0.044 |
| CGACAC | 2.026 ± 0.012 | 2 ± 0.037 |
| CGACAA | 1.945 ± 0.013 | 1.96 ± 0.029 |
| CGACAG | 1.95 ± 0.031 | 1.972 ± 0.018 |
| UCUGGU | 1.9654 ± 0.0015 | 2.02 ± 0.032 |
| UCUGGC | 2.03 ± 0.022 | 2.0358 ± 0.00061 |
| AGACCG | 2.05 ± 0.026 | 2.04 ± 0.029 |
| AGACCC | 2.039 ± 0.0085 | 2.02 ± 0.055 |
| CGAGAC | 1.947 ± 0.015 | 1.974 ± 0.012 |
| AGAAUC | 2.0639 ± 0.001 | 2.05 ± 0.033 |
| AGAAUU | 2.005 ± 0.02 | 2.021 ± 0.008 |
| AGAAUA | 1.9881 ± 0.00025 | 2.02 ± 0.037 |

| Variant | normalized RNA/DNA level without ligand (log10) ((6R,S)-folinic acid [1]) | normalized RNA/DNA level with ligand (log10) ((6R,S)-folinic acid [2]) |
| --- | --- | --- |
| AGAAUG | 1.893 ± 0.0045 | 2 ± 0.039 |
| UGAACA | 1.9795 ± 0.00092 | 2.01 ± 0.037 |
| UGAACC | 2.011 ± 0.0035 | 2 ± 0.031 |
| CCUGGC | 2.051 ± 0.013 | 2.05 ± 0.045 |
| CCUGGG | 2.012 ± 0.01 | 2.017 ± 0.0021 |
| CCUGGU | 2.044 ± 0.0037 | 2.088 ± 0.011 |
| CCUGGA | 2.046 ± 0.0022 | 2.068 ± 0.0024 |
| CGAACG | 2.0268 ± 0.0006 | 2.024 ± 0.0057 |
| CGAACU | 2 ± 0.023 | 2 ± 0.05 |
| UCUUUA | 2.001 ± 0.0056 | 2 ± 0.015 |
| UCUUUC | 2.017 ± 0.0074 | 1.996 ± 0.0066 |
| UCUUUG | 1.81 ± 0.031 | 1.952 ± 0.019 |
| GGAAUA | 2.022 ± 0.0049 | 2.04 ± 0.04 |
| UGAAGC | 1.964 ± 0.018 | 2 ± 0.021 |
| CCUGUC | 2.022 ± 0.0031 | 2.01 ± 0.041 |
| CCUGUG | 2.0488 ± 0.00073 | 2.03 ± 0.038 |
| CCUGUA | 2.018 ± 0.012 | 2.04 ± 0.022 |
| CCUGUU | 2.02 ± 0.021 | 2.015 ± 0.014 |
| ACUGCA | 2.02 ± 0.013 | 2.05 ± 0.009 |
| ACUGCU | 2.0021 ± 0.002 | 2.008 ± 0.015 |
| ACUGCC | 2.06 ± 0.024 | 2.06 ± 0.039 |
| ACUGCG | 1.902 ± 0.011 | 2.013 ± 0.013 |
| ACUCCU | 2.075 ± 0.0094 | 2.08 ± 0.05 |
| ACUCCC | 2.054 ± 0.0096 | 2.02 ± 0.048 |

| Variant | normalized RNA/DNA level without ligand (log10) ((6R,S)-folinic acid [1]) | normalized RNA/DNA level with ligand (log10) ((6R,S)-folinic acid [2]) |
| --- | --- | --- |
| ACUCCG | 2.001 ± 0.014 | 2.03 ± 0.064 |
| UCUUGU | 1.976 ± 0.014 | 2.02 ± 0.051 |
| UCUUGA | 1.987 ± 0.0069 | 2.025 ± 0.006 |
| CCUCCC | 2.095 ± 0.016 | 2.0404 ± 0.0018 |
| CCUCCG | 2.07 ± 0.029 | 2.049 ± 0.011 |
| CCUCCU | 2.06 ± 0.036 | 2.037 ± 0.0023 |
| UGACAU | 1.9505 ± 0.00041 | 1.99 ± 0.05 |
| UGACAC | 2.002 ± 0.0083 | 2.008 ± 0.0047 |
| AGAAGC | 2.004 ± 0.0023 | 2.049 ± 0.016 |
| AGAAGG | 1.931 ± 0.019 | 2.01 ± 0.037 |
| AGAAGU | 1.938 ± 0.007 | 1.9746 ± 0.00065 |
| AGAAGA | 1.949 ± 0.0067 | 2.02 ± 0.025 |
| ACUCUG | 1.925 ± 0.018 | 2 ± 0.025 |
| ACUCUC | 2.086 ± 0.0057 | 2.06 ± 0.024 |
| ACUCUA | 2.005 ± 0.0056 | 2.01 ± 0.06 |
| ACUCUU | 2.0142 ± 0.0018 | 2.01 ± 0.046 |
| UCUCUU | 2.06 ± 0.034 | 2.06 ± 0.059 |
| UCUCUA | 1.997 ± 0.0062 | 2.01 ± 0.04 |
| UCUCUG | 1.89 ± 0.011 | 1.96 ± 0.027 |
| UCUCUC | 2.076 ± 0.015 | 2.04 ± 0.035 |
